{"source": "paper PMC5137425", "key": {"[1]": {"molecular_target": "Human ubiquitin (monoUb) (human) (UniProt P0CG48)", "test": "NMR titration"}, "[2]": {"molecular_target": "C. elegans TDP2 UBA domain, CeTDP2 (41-100) (C. elegans) (UniProt Q9XWG3)", "test": "NMR titration"}, "[3]": {"molecular_target": "C. elegans TDP2 UBA domain, CeTDP2 (41-100) (C. elegans) (UniProt Q9XWG3)", "test": "fluorescence polarisation"}}, "data": [{"substance": "C. elegans TDP2 UBA domain, CeTDP2 (41-100) (from UniProt Q9XWG3 41-100) (domain or fragment)", "values": [{"measurement": "Kd", "setting": "[1]", "value": 100, "unit": "µM"}]}, {"substance": "Human ubiquitin (monoUb) (from UniProt P0CG48 1-76) (natural protein)", "values": [{"measurement": "Kd", "setting": "[2]", "value": 120, "unit": "µM"}, {"measurement": "Kd", "setting": "[3]", "value": 40, "unit": "µM"}]}, {"substance": "K48-linked diubiquitin (from UniProt P0CG48 1-76) (complex)", "values": [{"measurement": "Kd", "setting": "[3]", "value": 8.4, "unit": "µM"}]}, {"substance": "K63-linked diubiquitin (from UniProt P0CG48 1-76) (complex)", "values": [{"measurement": "Kd", "setting": "[2]", "value": 10.2, "unit": "µM"}]}]}
